Results on one molecule are retold here after patent publication US6908741 (TRANSTECH PHARMA, dated 2005).

The target in assay [1] is T1, soluble RAGE (sRAGE), the soluble, extracellular portion of the human Receptor for Advanced Glycated … (human, UniProt Q15109 23-339). Kind of assay: ELISA saturation curves with Scatchard analysis (FIGS. 10 and 11), 500 and 100 ng/well S-100b coated, sRAGE about 23-470 nM or 5-76 nM; low affinity site, told for both experiments.
Assay [2] has as its target T1, soluble RAGE (sRAGE), the soluble, …. Kind of assay: ELISA saturation curve with Scatchard analysis (FIG. 8), 50 ng/well S-100b coated, sRAGE about 0.3-10 nM; high affinity component. (ELISA stands for enzyme-linked immunosorbent assay.)
Assay [3] shares this target. The experiment in a line: ELISA saturation curve with Scatchard analysis (FIG. 9), 100 ng/well S-100b coated, sRAGE about 0.3-10 nM; high affinity component.

T1 sequence (Q15109 23-339 limits assumed): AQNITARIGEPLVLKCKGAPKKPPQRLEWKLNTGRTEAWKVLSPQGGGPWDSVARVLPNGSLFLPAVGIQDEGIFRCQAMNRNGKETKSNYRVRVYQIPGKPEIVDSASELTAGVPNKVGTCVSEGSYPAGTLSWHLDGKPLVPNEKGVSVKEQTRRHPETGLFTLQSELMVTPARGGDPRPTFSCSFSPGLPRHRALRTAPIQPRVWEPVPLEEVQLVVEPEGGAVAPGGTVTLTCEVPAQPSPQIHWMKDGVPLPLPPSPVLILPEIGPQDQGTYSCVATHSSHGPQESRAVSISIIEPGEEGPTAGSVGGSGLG

B1: S-100b (ligand)
chain: MSELEKAMVALIDVFHQYSGREGDKHKLKKSELKELINNELSHFLEEIKEQEVVDKVMETLDNDGDGECDFQEFMAFVAMVTTACHEFFEHE
One may read the Kd as the free concentration of one partner at which half of the binding sites on the other are occupied at equilibrium, for simple one-to-one binding. Higher therefore signals weaker binding. Take B1: the figures for the Kd in assay [1], in assay [2] and in assay [3] were roughly 60 nM, roughly 6 nM and roughly 2 nM, respectively.
